This is an account of results in IntAct's records for PubMed 20010840.

First the molecules themselves.
B1: Signaling lymphocytic activation molecule (Homo sapiens), Q13291 (parent)
chain: MDPKGLLSLTFVLFLSLAFGASYGTGGRMMNCPKILRQLGSKVLLPLTYERINKSMNKSIHIVVTMAKSLENSVENKIVSLDPSEAGPPRYLGDRYKFYLENLTLGIRESRKEDEGWYLMTLEKNVSVQRFCLQLRLYEQVSTPEIKVLNKTQENGTCTLILGCTVEKGDHVAYSWSEKAGTHPLNPANSSHLLSLTLGPQHADNIYICTVSNPISNNSQTFSPWPGCRTDPSETKPWAVYAGLLGGVIMILIMVVILQLRRRGKTNHYQTTVEKKSLTIYAQVQKPGPLQKKLDSFPAQDPCTTIYVAATEPVPESVQETNSITVYASVTLPES

In the assay the parent is B1. The following applies: with hema_mease H.
Take MDPKGLLSLTFVLFLSLAFGASYGTGGRMMNCPKILRQLGSKVLLPLTYERINKSMNKSIHIVVTMAKSLENSVENKIVSLDPSEAGPPAYLGDRYKFYLENLTLGIRESRKEDEGWYLMTLEKNVSVQRFCLQLRLYEQVSTPEIKVLNKTQENGTCTLILGCTVEKGDHVAYSWSEKAGTHPLNPANSSHLLSLTLGPQHADNIYICTVSNPISNNSQTFSPWPGCRTDPSETKPWAVYAGLLGGVIMILIMVVILQLRRRGKTNHYQTTVEKKSLTIYAQVQKPGPLQKKLDSFPAQDPCTTIYVAATEPVPESVQETNSITVYASVTLPES [R90A]: the “effect of a mutation on the interaction” value is recorded as “decreasing interaction”.

In the case of MDPKGLLSLTFVLFLSLAFGASYGTGGRMMNCPKILRQLGSKVLLPLTYERINKSMNKSIHIVVTMAKSLENSVENKIVSLDPSEAGGGRYLGDRYKFYLENLTLGIRESRKEDEGWYLMTLEKNVSVQRFCLQLRLYEQVSTPEIKVLNKTQENGTCTLILGCTVEKGDHVAYSWSEKAGTHPLNPANSSHLLSLTLGPQHADNIYICTVSNPISNNSQTFSPWPGCRTDPSETKPWAVYAGLLGGVIMILIMVVILQLRRRGKTNHYQTTVEKKSLTIYAQVQKPGPLQKKLDSFPAQDPCTTIYVAATEPVPESVQETNSITVYASVTLPES [P88G;P89G], the “effect of a mutation on the interaction” value is reported as “decreasing interaction”.

Regarding MDPKGLLSLTFVLFLSLAFGASYGTGGRMMNCPKILRQLGSKVLLPLTYERINKSMNKSIHIVVTMAKSLENSVENKIVSLDPSEAGPPRALGDRYKFYLENLTLGIRESRKEDEGWYLMTLEKNVSVQRFCLQLRLYEQVSTPEIKVLNKTQENGTCTLILGCTVEKGDHVAYSWSEKAGTHPLNPANSSHLLSLTLGPQHADNIYICTVSNPISNNSQTFSPWPGCRTDPSETKPWAVYAGLLGGVIMILIMVVILQLRRRGKTNHYQTTVEKKSLTIYAQVQKPGPLQKKLDSFPAQDPCTTIYVAATEPVPESVQETNSITVYASVTLPES [Y91A], the “effect of a mutation on the interaction” value was “decreasing interaction”.
